From PMC11921375, “Phenanthrene degradation by a flavoprotein monooxygenase from Phanerodontia chrysosporium” (Applied and Environmental Microbiology, 2025)

Key:
[1] = system: T1, FPMO11 (flavoprotein monooxygenase 11); experiment: NAD(P)H oxidation at […] nm, initial velocity; assay type: biochemical, Phanerodontia chrysosporium; details: apparent, 50 mM HEPES-NaOH pH 7.0, 30°C
T1 construct: full-length, C-terminal 6xHis, pET21a, E. coli BL21; FAD flavoprotein

[2] = target: T2, NahG (salicylate 1-monooxygenase) (Pseudomonas putida, UniProt P23262); experiment: NAD(P)H oxidation at […] nm, initial velocity; assay type: biochemical; details: apparent; co-substrate NADH varied, aromatic substrate not stated; 50 mM HEPES pH 8.0, 30°C
T2 construct: full-length synthetic gene, C-terminal 6xHis, pET21a, E. coli BL21
T2 sequence (P23262 2-434): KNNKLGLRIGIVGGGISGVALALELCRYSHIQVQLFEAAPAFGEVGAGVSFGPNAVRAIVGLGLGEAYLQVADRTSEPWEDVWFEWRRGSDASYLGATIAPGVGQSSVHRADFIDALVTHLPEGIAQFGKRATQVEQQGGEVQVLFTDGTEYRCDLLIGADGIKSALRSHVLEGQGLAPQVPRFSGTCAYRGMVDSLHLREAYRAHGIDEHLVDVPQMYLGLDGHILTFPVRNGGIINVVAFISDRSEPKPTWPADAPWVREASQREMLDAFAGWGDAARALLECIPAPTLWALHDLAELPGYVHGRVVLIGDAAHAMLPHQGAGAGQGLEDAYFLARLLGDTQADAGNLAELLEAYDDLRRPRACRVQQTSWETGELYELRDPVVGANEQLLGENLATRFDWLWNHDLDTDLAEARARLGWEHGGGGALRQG

[3] = system: T3, IDD1 (intradiol dioxygenase 1); experiment: O2 consumption, Clark electrode; Michaelis-Menten fit; assay type: biochemical, Phanerodontia chrysosporium; details: apparent; 50 mM Tris-HCl pH 8.0, air-saturated, superoxide dismutase added
T3 construct: recombinant, E. coli

[4] = system: T4, IDD2 (intradiol dioxygenase 2); experiment: as above; assay type: biochemical, Phanerodontia chrysosporium; details: apparent; 50 mM Tris-HCl pH 8.0, air-saturated, superoxide dismutase added
T4 construct: recombinant, E. coli

purified protein [5] = substrate: O=C(O)c1ccc(O)cc1O; experiment: purified protein; assay type: biochemical, Pseudomonas putida; details: apparent, NAD(P)H co-substrate (NADH in results, NADPH in methods), 50 mM HEPES pH 8.0, 30°C
purified protein [6] = substrate: O=C(O)c1cccc(O)c1O; experiment: purified protein; assay type: biochemical, Pseudomonas putida; details: apparent, NAD(P)H co-substrate (NADH in results, NADPH in methods), 50 mM HEPES pH 8.0, 30°C
purified protein [7] = substrate: O=C(O)c1ccc(Cl)cc1O; experiment: purified protein; assay type: biochemical, Pseudomonas putida; details: apparent, NAD(P)H co-substrate (NADH in results, NADPH in methods), 50 mM HEPES pH 8.0, 30°C
purified protein [8] = substrate: NC(=O)C1=CN([C@@H]2O[C@H](COP(=O)(O)OP(=O)(O)OC[C@H]3O[C@@H](n4cnc5c(N)ncnc54)[C@H](OP(=O)(O)O)[C@@H]3O)[C@@H](O)[C@H]2O)C=CC1; experiment: purified protein; assay type: biochemical, Pseudomonas putida; details: apparent, co-substrate NADPH varied, aromatic substrate not stated, 50 mM HEPES pH 8.0, 30°C, varied: cofactor
purified protein [9] = substrate: O=C(O)c1cc(O)ccc1O; experiment: purified protein; details: apparent, NAD(P)H co-substrate (NADH in results, NADPH in methods), 50 mM HEPES pH 8.0, 30°C

**Q.** Which Km ([1]; NADPH co-substrate) does the source give for O=C(O)c1ccc2ccccc2c1O [1H2N] here?
**A.** The Km was 100 ± 15 µM.

**Q.** How did the Km ([1]; co-substrate NADH varied, aromatic substrate not stated) turn out when NC(=O)C1=CN([C@@H]2O[C@H](COP(=O)(O)OP(=O)(O)OC[C@H]3O[C@@H](n4cnc5c(N)ncnc54)[C@H](O)[C@@H]3O)[C@@H](O)[C@H]2O)C=CC1 [NADH] was run?
**A.** The Km was 170 ± 60 µM.

**Q.** What about the Km [2] of the same molecule?
**A.** The Km was 27 ± 10 µM.

**Q.** O=C(O)c1cc(O)ccc1O [GA] was tested. Which Km ([1]; NADPH co-substrate) did it give?
**A.** Its Km is 48 ± 45 µM.

**Q.** With O=C(O)c1cccc(-c2ccccc2)c1O [2H3PB] as the molecule, how does the Km ([1]; NADPH co-substrate) read?
**A.** Its Km is 290 ± 67 µM.

**Q.** Which Km ([1]; NADPH co-substrate) does the source give for O=C(O)c1ccc(Cl)cc1O [4CSA] here?
**A.** The Km was 120 ± 28 µM.

**Q.** With O=C(O)c1cccc(O)c1O [2,3DHB] as the molecule, how does the Km ([1]; NADPH co-substrate) read?
**A.** Its Km is 67 ± 1.8 µM.

**Q.** How did the Km ([1]; co-substrate NADPH varied, aromatic substrate not stated) turn out when NC(=O)C1=CN([C@@H]2O[C@H](COP(=O)(O)OP(=O)(O)OC[C@H]3O[C@@H](n4cnc5c(N)ncnc54)[C@H](OP(=O)(O)O)[C@@H]3O)[C@@H](O)[C@H]2O)C=CC1 [NADPH] was run?
**A.** Its Km is 150 ± 37 µM.

**Q.** For O=C(O)c1ccccc1O [SA], which Km ([1]; NADPH co-substrate) is on record?
**A.** Its Km is 30 ± 34 µM.

**Q.** With O=C(O)c1ccc(O)cc1O [2,4DHB] as the molecule, how does the Km ([1]; NADPH co-substrate) read?
**A.** Its Km is 82 ± 9.7 µM.

**Q.** For O=C(O)c1c(O)ccc2ccccc12 [2H1N], which Km ([1]; NADPH co-substrate) is on record?
**A.** Its Km is 110 ± 25 µM.

**Q.** Which Km [3] does the source give for Oc1ccc2ccccc2c1O [1,2DHN] here?
**A.** The Km was 480 ± 18 µM.

**Q.** And the Km [4]?
**A.** The Km was 520 ± 180 µM.

**Q.** With O=C(O)c1c(O)cccc1-c1ccccc1 [2H6PB] as the molecule, how does the Km ([1]; NADPH co-substrate) read?
**A.** The Km was 320 ± 84 µM.

B1: NahG (salicylate 1-monooxygenase) (Pseudomonas putida) (protein)
chain: KNNKLGLRIGIVGGGISGVALALELCRYSHIQVQLFEAAPAFGEVGAGVSFGPNAVRAIVGLGLGEAYLQVADRTSEPWEDVWFEWRRGSDASYLGATIAPGVGQSSVHRADFIDALVTHLPEGIAQFGKRATQVEQQGGEVQVLFTDGTEYRCDLLIGADGIKSALRSHVLEGQGLAPQVPRFSGTCAYRGMVDSLHLREAYRAHGIDEHLVDVPQMYLGLDGHILTFPVRNGGIINVVAFISDRSEPKPTWPADAPWVREASQREMLDAFAGWGDAARALLECIPAPTLWALHDLAELPGYVHGRVVLIGDAAHAMLPHQGAGAGQGLEDAYFLARLLGDTQADAGNLAELLEAYDDLRRPRACRVQQTSWETGELYELRDPVVGANEQLLGENLATRFDWLWNHDLDTDLAEARARLGWEHGGGGALRQG
notes: full-length synthetic gene, C-terminal 6xHis, pET21a, E. coli BL21
**Q.** What does the source list for B1?
**A.** Km (purified protein [5]): 70 ± 15 µM; kcat (purified protein [5]): 5.17 ± 0.467 s⁻¹; kcat/Km (purified protein [5]): 73300 M⁻¹ s⁻¹; Km (purified protein [6]): 120 ± 15 µM; kcat (purified protein [6]): 5.5 ± 0.567 s⁻¹; kcat/Km (purified protein [6]): 45000 M⁻¹ s⁻¹; Km (purified protein [7]): 51 ± 19 µM; kcat (purified protein [7]): 0.917 ± 0.4 s⁻¹; kcat/Km (purified protein [7]): 18300 M⁻¹ s⁻¹; Km (purified protein [8]): 69 ± 17 µM; kcat (purified protein [8]): 1.33 ± 0.583 s⁻¹; kcat/Km (purified protein [8]): 20000 M⁻¹ s⁻¹; Km (purified protein [9]): 110 ± 30 µM; kcat (purified protein [9]): 7 s⁻¹; kcat/Km (purified protein [9]): 61700 M⁻¹ s⁻¹
